Test [1] deals with T1, uncleavable rev-caspase-3 (Homo sapiens, UniProt P42574, D28A/D9A).
T1 construct: uncleavable rev-caspase-3 (B); made in house; host or cells: in vitro translation in rabbit reticulocyte lysate (TNT Kit, Promega)
T1 sequence (P42574 with tags, fused parts or gaps D9A/D28A): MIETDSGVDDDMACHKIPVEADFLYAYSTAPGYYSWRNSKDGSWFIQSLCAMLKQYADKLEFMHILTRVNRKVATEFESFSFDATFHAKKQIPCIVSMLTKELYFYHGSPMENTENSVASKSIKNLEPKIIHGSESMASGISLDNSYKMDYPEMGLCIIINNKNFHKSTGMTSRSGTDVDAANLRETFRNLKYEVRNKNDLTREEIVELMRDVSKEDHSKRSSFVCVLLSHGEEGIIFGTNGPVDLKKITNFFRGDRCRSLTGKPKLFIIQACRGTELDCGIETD
Kind of test: In vitro translation of uncleavable rev-caspase-3: His6-T7-tag processing. The format is biochemical. The settings on record: 400 nM DEVD-CHO during in vitro translation. The text has this: FIG. 5A is a scanned image of an autoradiogram representing SDS-PAGE analysis of the enzymatic activity of uncleavable rev-caspase-3. Uncleavable rev-caspase-3 was in vitro translated in the absence or the presence of increasing concentrations of DEVD-CHO (SEQ ID NO:52),. The translation product contains a cleavable 35 residues-long His6-T7-tag at its N-terminus. The active site mutant rev-caspase-3 (Rev C/A) was used as a control. The p32 cleavage product without the His6-T7-tag is indicated to the right.
^35S-labeled caspases (wild-type and rev-caspases) were obtained by in vitro translation in the presence of ^35S-methionine using a coupled transcription/translation system in rabbit reticulocyte lysate using TNT Kit (Promega) according to the manufacturer's recommendations. […] Because the in vitro translated products are present at very low concentration in the reaction mixture, the observed cleavage must be attributed to an intramolecular processing within the caspase heterotetramer.
However, to follow the activity of this molecule a cleavable 35 residue long His6-T7-tag N-terminal to the IETD (SEQ ID NO:53) site was introduced (see FIG. 1B). […] Nevertheless, the translated molecule was active as evident from its ability to cleave its T7-tag to form the p32 species (FIG. 5). In the presence of 400 nM DEVD-CHO (SEQ ID NO:52), processing of the T7-tag was inhibited and only the full length p34 species can be seen. […] Thus by mimicking the mature caspase structure, it is possible to design a contiguous active caspase molecules.

In test [2] the target is T2, caspase-6 (Homo sapiens, UniProt P55212).
T2 sequence (P55212 24-293): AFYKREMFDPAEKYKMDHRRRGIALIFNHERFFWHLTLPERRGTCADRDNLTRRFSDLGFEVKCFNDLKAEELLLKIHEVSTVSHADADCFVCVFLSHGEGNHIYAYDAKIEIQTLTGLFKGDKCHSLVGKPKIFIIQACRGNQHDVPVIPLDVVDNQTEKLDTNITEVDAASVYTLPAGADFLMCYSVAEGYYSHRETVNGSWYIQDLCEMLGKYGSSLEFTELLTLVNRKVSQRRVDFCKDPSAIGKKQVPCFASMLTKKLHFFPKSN
The settings on record: earlier observations, J. Biol. Chem. 271:27099; cited from earlier work.

Test [3] deals with T3, rev-caspase-3 (Homo sapiens, UniProt P42574).
T3 sequence (P42574 with tags, fused parts or gaps): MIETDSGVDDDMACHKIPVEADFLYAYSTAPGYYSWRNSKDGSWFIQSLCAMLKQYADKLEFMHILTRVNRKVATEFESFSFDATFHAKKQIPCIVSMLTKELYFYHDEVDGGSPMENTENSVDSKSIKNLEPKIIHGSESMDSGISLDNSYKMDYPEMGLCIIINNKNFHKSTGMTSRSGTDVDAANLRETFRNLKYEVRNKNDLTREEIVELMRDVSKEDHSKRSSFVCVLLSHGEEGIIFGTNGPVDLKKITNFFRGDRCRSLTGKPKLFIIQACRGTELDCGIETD
Put plainly: Autocatalytic processing of in vitro translated rev-caspase-3 (SDS-PAGE/autoradiography). The format is biochemical. The arrangement: T7-tag (15 residues) (N); made in house; host or cells: in vitro translation in rabbit reticulocyte lysate (TNT Kit, Promega). The following applies: at 40-400 nM concentration, inhibitor present during in vitro translation. On the procedure: (§1) FIGS. 2B and C are scanned images of autoradiograms representing SDS-PAGE analysis of the autoprocessing of rev-caspase-3 and -6, respectively in the presence of varying levels of selected caspase inhibitors. Rev-caspase-3 (FIG. 2B) or rev-caspase-6 (FIG. 2C) were in vitro translated in the presence of increasing concentrations of DEVD-CHO […]; (SEQ ID NO:52), or zVAD-fmk (0-5 μM). The translation products were then analyzed as in FIG. 2A. WT, wild-type.
(§2) ^35S-labeled caspases (wild-type and rev-caspases) were obtained by in vitro translation in the presence of ^35S-methionine using a coupled transcription/translation system in rabbit reticulocyte lysate using TNT Kit (Promega) according to the manufacturer's recommendations.
(§3) To test the effect of selected caspase inhibitors on the autocatalytic activity of rev-caspase-3 and 6, the rev-caspases were translated as in Example 3, but in the presence of varying amounts of inhibitors.

In test [4] the target is T4, rev-caspase-6 (Homo sapiens, UniProt P55212).
T4 sequence (P55212 with tags, fused parts or gaps): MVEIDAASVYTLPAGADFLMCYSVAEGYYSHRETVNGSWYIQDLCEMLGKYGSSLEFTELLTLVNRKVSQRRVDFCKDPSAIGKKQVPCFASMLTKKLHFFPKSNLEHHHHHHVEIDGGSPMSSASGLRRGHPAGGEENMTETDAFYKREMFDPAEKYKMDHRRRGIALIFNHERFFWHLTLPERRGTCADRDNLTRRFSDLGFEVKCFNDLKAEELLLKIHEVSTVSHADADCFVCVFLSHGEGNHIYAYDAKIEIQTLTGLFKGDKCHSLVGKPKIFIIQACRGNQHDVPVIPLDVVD
Kind of test: Autocatalytic processing of in vitro translated rev-caspase-6 (SDS-PAGE/autoradiography). The format is biochemical. More on the design: T7-tag (15 residues) (N); made in house; host or cells: in vitro translation in rabbit reticulocyte lysate (TNT Kit, Promega). The following applies: same concentrations (40-400 nM), inhibitor present during in vitro translation. On the procedure: as §1, §2, §3

Take DEVD-CHO [reference compound]: in test [1], the “processing of the T7-tag of uncleavable rev-caspase-3” value was “inhibited”. Also, the “inhibition of caspase-6” value in test [2] is on record as “poorly inhibited”. Besides, the “inhibition of the autocatalytic activity of rev-caspase-3” value in test [3] is 50-90%. Also, the “effect on the autocatalytic activity of rev-caspase-6” value in test [4] is “little effect”.

Source of the values: patent US6610541B2, “Recombinant, active caspases and uses thereof” (Thomas Jefferson University, priority 1998, dated 2003).
